Residue numbers refer to the chain shown, from its start.
B1: Wild-type: Pseudomonas sp. SE83 derived wild-type CPC acylase (AcyII), α-subunit SEQ ID NO: 4 and β-subunit SEQ ID NO: 5, from pBCPC (protein)
alpha: TMAAKTDREALQAALPPLSGSLSIPGLSAPVRVQRDGWGIPHIKASGEADAYRALGFVHAQDRLFQMELTRRKALGRAAEWLGAEAAEADILVRRLGMEKVCRRDFEALGAEAKDMLRAYVAGVNAFLASGAPLPIEYGLLGAEPEPWEPWHSIAVMRRLGLLMGSVWFKLWRMLALPVVGAANALKLRYDDGGQDLLCIPPGVEAERLEADLAALRPAVDALLKAMGG
beta: SNNWAVAPGRTATGRPILAGDPHRVFEIPGMYAQHHLACDRFDMIGLTVPGVPGFPHFAHNGKVAYCVTHAFMDIHDLYLEQFAEDGRTARFGNEFEPVAWRRDRIAVRGGADREFDIVETRHGPVIAGDPLEGAALTLRSVQFAETDLSFDCLTRMPGASTVAQLYDATRGWGLIDHNLVAGDVAGSIGHLVRARVPSRPRENGWLPVPGWSGEHEWRGWIPHEAMPRVIDPPGGLIVTANNRVVADDHPDYLCTDCHPPYRAERIMERLVASPAFAVDDAAAIHADTLSPHVGLLRARLEALGIQGSLPAEELRQTLIAWDGRMDAGSQAASAYNAFRRALTRLVTARSGLEQAIAHPFAAVPPGVSPQGQVWWAVPTLLRNDDAGMLKGWSWDEALSEALSVATQNLTGRGWGEEHRPRFTHPLSAQFPAWAALLNPVSRPIGGDGDTVLANGLVPSAGPEATYGALSRYVFDVGNWDNSRWVVFHGASGHPASPHYADQNAPWSDCAMVPMLYSWDRIAAEAVTSQELVPA
modifications: Pseudomonas sp. SE83
B2: S12: sixfold CPC acylase mutant, α-subunit SEQ ID NO: 7 and β-subunit SEQ ID NO: 8 (protein)
alpha: B1 alpha with V121A, G139S
beta: B1 beta with F58N, I75T, I176V, S471C
modifications: alpha-subunit of mutatnt CPC acylase S12 protein; beta-subunit of mutatnt CPC acylase S12 protein

Assays:
[1] = Matsuda et al. 1987; cited from earlier work
[2] = Reactivity to CPC (relative 7-ACA produced by the same amount of protein); format: biochemical; details: crude enzyme solution
Description: The enzyme activity of CPC acylase mutant to CPC was measured according to the method described by Park et al. with minor modifications as follows (Park, et al., Kor. J. Appl. Microbiol. Biotechnol. 23: 559-564, 1995). A substrate solution was prepared by dissolving CPC (purity 74.2%; CJ Corp., Korea) in 0.1 M Tris-HCl buffer solution (pH 8.0) at a concentration of 20 mg/ml and adjusting pH to 8 with 1 N NaOH. 20 μl of the CPC solution was mixed with 20 μl of the crude enzyme solution prepared above and the reaction mixture was incubated at 37° C. for 5 min. After the reaction, the mixture (200 μl) of 50 mM NaOH and 20% glacial acetic acid (1:2) was added thereto to stop the reaction. 200 μl of the supernatant recovered from the reaction mixture by centrifugation was mixed with 40 μl of 0.5% (w/v) PDAB (p-dimethylaminobenzaldehyde; Sigma, USA) dissolved in a methanol and the reaction mixture was incubated at 37° C. for 10 min. After the reaction, the absorbance of reaction mixture was measured at 415 nm and quantified by comparing with a calibration curve of standard material. […] Meanwhile, the specific activity of CPC acylase mutant for CPC was determined by measuring the amount of protein remaining in the enzyme solution according to the method described by Bradford (Bradford, M., Anal. Biochem. 72: 248-254, 1976) and representing it as an active unit corresponding to 1 mg of protein. […]

[3] = Productivity of CPC acylase mutant, pET29 plasmids in E. coli BL21(DE3) with lactose; details: pET29-S12, E. coli BL21(DE3), 2% lactose, 25° C., 72 hr
Description: Each of pET29-TnS5αβ and pET29-S12 plasmids was transformed into E. coli BL21(DE3) by electrophoration to prepare the recombinant E. coli containing pET29-TnS5αβ and pET29-S12 plasmid, respectively, and the productivity of sixfold CPC acylase mutant in each recombinant E. coli was measured The TnS5αβ and S12 CPC acylase mutant gene in these recombinant plasmids was transcribed by the action of T7 promoter which is under the control of LacI operator existed on pET29-a(+) vector.
The recombinant E. coli containing pET-TnS5αβ plasmid was inoculated in […] of a LB broth containing 20 μg/ml of kanamycin and cultivated at 30° C., 200 rpm for 16 hr with vigorous shaking. […] The activity of sixfold CPC acylase mutant to CPC was measured using said crude enzyme solution according to the same method as described in Example <1-1-2>.
Further, the productivity of CPC acylase by S12 mutant enzyme in the E. coli BL21(DE3) transformant containing pET29-S12 recombinant plasmid was measured according to the same method as described above except that […] of a LB broth containing 20 μg/ml of kanamycin and 2% lactose was employed for a main cultivation and the E. coli transformant was cultured at 25° C., 200 rpm for 72 hr with vigorous shaking. […]

| Molecule | acylase activity to CPC as compared with GL-7-ACA [1] | reactivity to CPC (in words) [2] | productivity of CPC acylase mutant [3] |
| --- | --- | --- | --- |
| B1 | about 5% | – | – |
| B2 | – | higher than that of #76 mutant | 1,207 unit/l |

Source: US7592168B2, “Cephalosporin C acylase mutant and method for preparing 7-ACA using same” (Sandoz AG, priority 2003, dated 2009)
